Data reported in patent US20240400690A1 (BIO THERA SOLUTIONS, published 2024).

T1: B7-H3 on tumour cells (MDA-MB-468 cells, N87 cells) (UniProt Q5ZPR3 29-534, limits assumed)
T1 construct: whole, on cells
T1 sequence (looked up): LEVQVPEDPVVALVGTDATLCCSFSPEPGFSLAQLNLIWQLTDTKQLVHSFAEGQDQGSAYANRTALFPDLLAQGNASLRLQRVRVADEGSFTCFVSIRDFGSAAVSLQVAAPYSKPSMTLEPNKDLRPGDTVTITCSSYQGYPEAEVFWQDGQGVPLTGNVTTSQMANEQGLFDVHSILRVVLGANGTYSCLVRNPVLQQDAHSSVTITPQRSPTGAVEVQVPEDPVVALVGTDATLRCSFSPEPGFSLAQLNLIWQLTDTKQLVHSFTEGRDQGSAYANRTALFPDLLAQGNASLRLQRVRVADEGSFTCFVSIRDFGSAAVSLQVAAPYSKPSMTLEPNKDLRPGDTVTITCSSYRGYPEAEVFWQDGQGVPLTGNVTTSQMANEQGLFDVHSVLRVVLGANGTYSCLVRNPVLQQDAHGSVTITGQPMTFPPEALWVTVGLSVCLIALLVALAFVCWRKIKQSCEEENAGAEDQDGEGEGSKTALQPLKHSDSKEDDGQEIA

T2: mouse B7-H3 (SinoBiological, 50973-M08H) (mouse, UniProt Q8VE98 29-244)
T2 construct: Bought reagent
T2 sequence (looked up): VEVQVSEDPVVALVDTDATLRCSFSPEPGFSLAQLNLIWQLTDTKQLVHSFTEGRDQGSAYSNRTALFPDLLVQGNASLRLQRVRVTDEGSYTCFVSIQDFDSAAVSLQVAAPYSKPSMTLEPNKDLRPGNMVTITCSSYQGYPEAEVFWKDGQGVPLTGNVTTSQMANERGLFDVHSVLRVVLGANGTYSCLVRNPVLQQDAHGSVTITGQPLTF

T3: VISTA (on VISTA-CHO cells) (UniProt Q9H7M9 33-311, limits assumed)
T3 construct: whole, on cells
T3 sequence (looked up): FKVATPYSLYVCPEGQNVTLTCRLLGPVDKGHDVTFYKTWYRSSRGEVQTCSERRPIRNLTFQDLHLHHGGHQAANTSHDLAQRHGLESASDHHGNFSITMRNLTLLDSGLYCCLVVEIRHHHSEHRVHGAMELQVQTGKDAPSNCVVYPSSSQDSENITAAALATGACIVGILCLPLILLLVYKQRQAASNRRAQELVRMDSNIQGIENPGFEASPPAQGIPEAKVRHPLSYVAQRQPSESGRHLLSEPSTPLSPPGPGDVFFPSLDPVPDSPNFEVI

T4: Lag3 (on Lag3-CHO cells) (UniProt P18627 23-525, limits assumed)
T4 construct: whole, on cells
T4 sequence (looked up): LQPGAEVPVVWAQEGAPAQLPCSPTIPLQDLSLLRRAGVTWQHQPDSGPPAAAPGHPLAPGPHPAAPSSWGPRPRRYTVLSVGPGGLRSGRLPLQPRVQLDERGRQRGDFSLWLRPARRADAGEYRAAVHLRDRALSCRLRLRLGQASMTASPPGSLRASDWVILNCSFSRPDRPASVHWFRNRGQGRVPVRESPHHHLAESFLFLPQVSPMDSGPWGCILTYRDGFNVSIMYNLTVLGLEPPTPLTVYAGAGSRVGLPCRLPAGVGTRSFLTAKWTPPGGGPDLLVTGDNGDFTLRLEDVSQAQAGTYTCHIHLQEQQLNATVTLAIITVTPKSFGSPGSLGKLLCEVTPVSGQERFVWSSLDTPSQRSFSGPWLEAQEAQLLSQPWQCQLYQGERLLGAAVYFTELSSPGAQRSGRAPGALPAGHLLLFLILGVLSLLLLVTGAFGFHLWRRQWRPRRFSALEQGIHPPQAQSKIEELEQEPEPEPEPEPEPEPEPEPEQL

T5: Tim3 (on Tim3-CHO cells) (UniProt Q8TDQ0 22-301, limits assumed)
T5 construct: whole, on cells
T5 sequence (looked up): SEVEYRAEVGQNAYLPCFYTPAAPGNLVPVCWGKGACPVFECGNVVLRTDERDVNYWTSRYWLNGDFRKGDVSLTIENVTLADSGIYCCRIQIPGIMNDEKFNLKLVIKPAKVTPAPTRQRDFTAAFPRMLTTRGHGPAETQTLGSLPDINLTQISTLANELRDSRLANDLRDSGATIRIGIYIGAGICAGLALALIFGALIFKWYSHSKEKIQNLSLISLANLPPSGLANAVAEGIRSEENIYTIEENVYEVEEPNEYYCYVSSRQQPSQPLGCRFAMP


Tests used:
[1] = target: T1, B7-H3 on tumour cells (MDA-MB-468 …); assay: flow cytometry on MDA-MB-468 cells, PE goat anti-human IgG Fc secondary; blank 0.9% in the positive gate
Method: MDA-MB-468 cells in logarithmic phase were collected and centrifuged at 1500 rpm for 5 min, and the supernatant was removed. The cells were resuspended in 1×PBS and centrifuged at 1500 rpm for 5 min, and the supernatant was removed, and then the procedure was repeated once. MDA-MB-468 cells were added to a V-bottom 96-well plate at 50 μL/well (200,000 cells) and centrifuged at 1500 rpm for 5 min, and PBS was discarded; the humanized antibody diluted in gradient (initial concentration of 100 nM, 3-fold gradient dilution, 1×PBS as the vehicle) was added at 100 μL/well; the cells were resuspended, and incubated on ice for 1 h; after the incubation was completed, the cells were centrifuged at 2000 rpm for 5 min, and the supernatant was removed; the cells were resuspended in 1×PBS added at 200 µL/well and centrifuged again and the supernatant was removed, and the procedure was repeated twice; a PE-labeled goat anti-human IgG Fc secondary antibody (Invitrogen, cat #12-4998-82, diluted with 1×PBS at 1:500) was added at 100 μL/well; the cells were resuspended, and incubated for 30 min on ice in the absence of light; after the incubation was completed, the cells were centrifuged at 2000 rpm for 5 min, and the supernatant was removed; the cells were resuspended in 1×PBS added at 200 μL/well and centrifuged again and the supernatant was removed, and the procedure was repeated twice; 1×PBS was then added at 200 μL/well to resuspend the cells; the detection was performed with a cytoflex flow cytometer (Beckman).

[2] = target: T2, mouse B7-H3 (SinoBiological, 50973-M08H); assay: ELISA, antigen coated at 2 µg/mL; Table 13 prints EC50 as NA
Method: The day before the experiment, the target antigens cynomolgus monkey B7-H3 (novoprotein CA61), mouse B7-H3 (SinoBiological, 50973-M08H) and hB7-H3-his were each diluted to 2 μg/mL with 1×PBS and added to a ELISA plate (96-well plate) at 100 μL/well (two rows for each antigen), and the wells were coated overnight at 4° C.

[3] = target: T3, VISTA (on VISTA-CHO cells); assay: flow cytometry on VISTA-CHO cells, PE goat anti-human IgG Fc secondary; blank 0.1% in P3
Method: (§1) Cells (VISTA-CHO cells, Tim3-CHO cells or Lag3-CHO cells) in logarithmic phase were collected and centrifuged at 1500 rpm for 5 min, and the supernatant was removed. The cells were resuspended in 1×PBS and centrifuged at 1500 rpm for 5 min, and the supernatant was removed, and then the procedure was repeated once. […]

Lag3 (on Lag3-CHO cells) = target: T4, Lag3 (on Lag3-CHO cells); assay: flow cytometry on Lag3-CHO cells, PE goat anti-human IgG Fc secondary; blank 0.5% in P3
Method: as §1

Tim3 (on Tim3-CHO cells) = target: T5, Tim3 (on Tim3-CHO cells); assay: flow cytometry on Tim3-CHO cells, PE goat anti-human IgG Fc secondary; blank 0.2% in P3
Method: as §1

| Binder | % of cells in positive gate V1-R at 0.411 nM [1] [%] | % of cells in positive gate V1-R at 1.23 nM [1] [%] | % of cells in positive gate V1-R at 11.11 nM [1] [%] | % of cells in positive gate V1-R at 33.33 nM [1] [%] | % of cells in positive gate V1-R at 3.7 nM [1] [%] | % of cells in positive gate V1-R at 100 nM [1] [%] | binding result [2] | % of cells in gate P3 at 100 nM [3] [%] | % of cells in gate P3 at 100 nM (Lag3 (on Lag3-CHO cells)) [%] | % of cells in gate P3 at 100 nM (Tim3 (on Tim3-CHO cells)) [%] |
| --- | --- | --- | --- | --- | --- | --- | --- | --- | --- | --- |
| antibody V2 (antibody, human IgG1, kappa, V domains shown, Humanized from chimeric antibody M1; expressed in HEK293F cells; also called humanized antibody V2) VH: EVQLVQSGAEVKKSGESLKISCKASGYTFTDYDINWVRQMPGKGLEWIGWIFPGDDTTKYNEKFKGQVTLSADKSTNTAYMQWSSLKASDTAMYYCARSPSFDYWGQGTLVTVSS VL: QIVLTQSPGTLSLSPGERATLSCSASSTIGFMYWYQQKPGQAPRRWIYDTSKLASGVPDRFSVSGSGTDYTLTISRLEPEDFAVYYCHQRSSYPTFGQGTKVEIKR | 1.2 | 1.3 | 97.8 | 99.7 | – | – | – | – | – | – |
| antibody V1 (antibody, human IgG1, kappa, V domains shown, Humanized from chimeric antibody M1; expressed in HEK293F cells; also called humanized antibody V1) VH: EVQLVQSGAEVKKSGESLKISCKASGYTFTDYDINWVRQMPGKGLEWMGWIFPGDDTTKYNEKFKGQVTISADKSTNTAYLQWSSLKASDTAMYYCARSPSFDYWGQGTLVTVSS VL: QIVLTQSPGTLSLSPGERATLSCSASSTIGFMYWYQQKPGQAPRRWIYDTSKLASGVPDRFSVSGSGTDYTLTISRLEPEDFAVYYCHQRSSYPTFGQGTKVEIKR | 1.4 | 8.6 | 99.5 | 99.6 | 92.7 | 99.7 | – | – | – | – |
| antibody V3 (antibody, human IgG1, kappa, V domains shown, Humanized from chimeric antibody M1; expressed in HEK293F cells; also called humanized antibody V3) VH: EVQLVQSGAEVKKSGESLKISCKASGYTFTDYDINWVRQMPGKGLEWIGWIFPGDDTTKYNEKFKGQVTLSADKSTNTAYMQWSSLKASDTAMYYCARSPSFDYWGQGTLVTVSS VL: QIVLTQSPGTLSLSPGERATLSCSASSTIGFMYWYQQKPGQAPRRWIYDTSKLASGVPDRFSGSGSGTDYTLTISRLEPEDFAVYYCHQRSSYPTFGQGTKVEIKR | 36.8 | 86.4 | 97.2 | 98.9 | 94 | 99.6 | no binding | – | – | – |

The remaining lines, values ahead:

| % of cells in positive gate V1-R at 0.411 nM [1] [%] | % of cells in positive gate V1-R at 1.23 nM [1] [%] | % of cells in positive gate V1-R at 11.11 nM [1] [%] | % of cells in positive gate V1-R at 33.33 nM [1] [%] | % of cells in positive gate V1-R at 3.7 nM [1] [%] | % of cells in positive gate V1-R at 100 nM [1] [%] | binding result [2] | % of cells in gate P3 at 100 nM [3] [%] | % of cells in gate P3 at 100 nM (Lag3 (on Lag3-CHO cells)) [%] | % of cells in gate P3 at 100 nM (Tim3 (on Tim3-CHO cells)) [%] | Binder |
| --- | --- | --- | --- | --- | --- | --- | --- | --- | --- | --- |
| 31.6 | 73.5 | 99.3 | 99.6 | 92.6 | 99.7 | – | – | – | – | antibody V5 (antibody, human IgG1, kappa, V domains shown, Humanized from chimeric antibody M1; expressed in HEK293F cells; also called humanized antibody V5) VH: QVQLVQSGAEVKKPGASVKVSCKASGYTFTDYDINWVRQAPGQRLEWIGWIFPGDDTTKYNEKFKGRATLTADKSASTAYMELSSLRSEDTAVYYCARSPSFDYWGQGTLVTVSS VL: QIVLTQSPSSLSASVGDRVTITCSASSTIGFMYWYQQKPGKAPKRWIYDTSKLASGVPSRFSVSGSGTDYTLTISSLQPEDFATYYCHQRSSYPTFGQGTKVEIKR |
| 1.1 | 4 | 97.2 | 98.8 | – | 99.3 | – | 0.2 | 0.3 | 0.4 | control antibody M30-H1-L4 (antibody, human IgG1, kappa, V domains shown, Control anti-B7-H3 antibody; also called HIL4) VH: QVQLVQSGAEVKKPGSSVKVSCKASGYTFTNYVMHWVRQAPGQGLEWMGYINPYNDDVKYNEKFKGRVTITADESTSTAYMELSSLRSEDTAVYYCARWGYYGSPLYYFDYWGQGTLVTVSS VL: EIVLTQSPATLSLSPGERATLSCRASSRLIYMHWYQQKPGQAPRPLIYATSNLASGIPARFSGSGSGTDFTLTISSLEPEDFAVYYCQQWNSNPPTFGQGTKVEIKR |
| 26.5 | 93.1 | 99.5 | 99.7 | 98.7 | 99.7 | – | 0.6 | 0.9 | 0.8 | antibody M1 (antibody, human IgG1, kappa, V domains shown, Chimeric antibody, murine variable regions on the IgG1 constant region; expressed in HEK293F cells; also called chimeric antibody M1) VH: QVQLQQSGPELVKPGASVRISCKASGYTFTDYDINWVQQRPGQGLEWIGWIFPGDDTTKYNEKFKGRATLTADKSSNTAYMQLNGLTSENSAVYFCARSPSFDYWGQGTLVTVSS VL: QIVLTQSPAIMSASPGERVTMTCSASSTIGFMYWYQQKPGTSPKRWIYDTSKLASGVPARFSVSGSGTSYSLTISSMEAEDAATYYCHQRSSYPTFGGGTKLEIKR |
